Experimental data taken from article PMC12629983, “Nanobody-based recombinant antivenom for cobra, mamba and rinkhals bites” (Nature, 2025).

How the values were obtained:
Details in all cases: both partners purified
KUN-1 = molecular target: T1, KUN-1 (Dendroaspis jamesoni (L1308, Cameroon), …, biotin (EZ-Link NHS-PEG4-Biotin, amine coupling)); assay: BLI; […] (0.5 µg/ml) […], pH 7.2; 600 s association, 600 s dissociation; global 1:1 fit
T1 construct: source: venom fraction isolated from whole venom (Latoxan) by RP-HPLC; biotinylated
T1 chain: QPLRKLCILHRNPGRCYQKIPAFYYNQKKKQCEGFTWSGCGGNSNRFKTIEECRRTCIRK

KUN-2 [1] = molecular target: T2, KUN-2 (Dendroaspis polylepis (L1309), fraction …, biotin (EZ-Link NHS-PEG4-Biotin, amine coupling)); assay: as above
T2 construct: source: venom fraction isolated from whole venom (Latoxan) by RP-HPLC; biotinylated
T2 chain: T1 chain

KUN-2 [2] = molecular target: KUN-2 (Dendroaspis polylepis (L1309), UniProt P00979, biotin (EZ-Link NHS-PEG4-Biotin, amine coupling)); assay: BLI; […], pH 7.2; 600 s association, 600 s dissociation; global 1:1 fit
lNTx-3 = molecular target: T3, lNTx-3 (Dendroaspis polylepis (L1309), fraction …, biotin (EZ-Link NHS-PEG4-Biotin, amine coupling)); assay: BLI; […] (0.5 µg/ml) […], pH 7.2; 600 s association, 600 s dissociation; global 1:1 fit
T3 chain: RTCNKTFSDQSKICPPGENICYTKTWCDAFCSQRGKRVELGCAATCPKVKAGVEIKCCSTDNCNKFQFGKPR

lNTx-7 = molecular target: T4, lNTx-7 (Naja kaouthia (Latoxan L8114), biotin (EZ-Link NHS-PEG4-Biotin, amine coupling)); assay: as above
T4 chain: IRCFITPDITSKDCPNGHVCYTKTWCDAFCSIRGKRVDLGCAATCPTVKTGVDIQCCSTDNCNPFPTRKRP

Og XI-1 = molecular target: T5, Og XI-1 (Dendroaspis jamesoni venom (L1308); …); assay: as above
T5 construct: source: venom fraction isolated from whole venom (Latoxan) by RP-HPLC; biotinylated
T5 chain: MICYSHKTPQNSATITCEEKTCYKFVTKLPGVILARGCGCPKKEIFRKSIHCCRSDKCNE

Og XI-2 = molecular target: T6, Og XI-2 (Dendroaspis viridis, UniProt P01405); assay: as above
T6 construct: source: venom fraction isolated from whole venom (Latoxan) by RP-HPLC; biotinylated

PLA2-3 = molecular target: T7, PLA2-3 (Naja nubiae (Egypt, L1342), fraction …, UniProt P14556); assay: cryo-EM structure
T7 construct: also called basic phospholipase A2 nigexine (P14556)
T7 sequence (P14556 whole entry): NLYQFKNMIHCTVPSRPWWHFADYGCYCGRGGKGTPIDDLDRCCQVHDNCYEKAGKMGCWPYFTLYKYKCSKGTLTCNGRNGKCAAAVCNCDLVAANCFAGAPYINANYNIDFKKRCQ

sNTx-1 = molecular target: T8, sNTx-1 (Dendroaspis jamesoni (L1308, Cameroon), …); assay: BLI; […] (0.5 µg/ml) […], pH 7.2; 600 s association, 600 s dissociation; global 1:1 fit
T8 chain: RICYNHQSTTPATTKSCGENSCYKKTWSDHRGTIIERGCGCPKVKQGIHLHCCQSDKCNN

sNTx-5 = molecular target: T9, sNTx-5 (Hemachatus haemachatus (L1311), …, biotin (EZ-Link NHS-PEG4-Biotin, amine coupling)); assay: as above
T9 chain: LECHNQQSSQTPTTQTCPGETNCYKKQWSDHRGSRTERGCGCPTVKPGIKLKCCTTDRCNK

sNTx-6 = molecular target: T10, sNTx-6 (Naja melanoleuca (L1318), fraction Nm3, biotin (EZ-Link NHS-PEG4-Biotin, amine coupling)); assay: as above
T10 chain: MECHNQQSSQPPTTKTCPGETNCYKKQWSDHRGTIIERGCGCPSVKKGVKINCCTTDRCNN

sNTx-7 = molecular target: T11, sNTx-7 (Naja annulifera (L1314), fraction Nan3, biotin (EZ-Link NHS-PEG4-Biotin, amine coupling)); assay: as above
T11 chain: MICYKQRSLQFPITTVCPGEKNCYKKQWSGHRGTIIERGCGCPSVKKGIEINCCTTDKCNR

[3] = molecular target: T12, α-short-chain neurotoxin (P01426) from N. pallida (Naja pallida, UniProt P01426); assay: crystal structure
T12 construct: also called short neurotoxin 1 (P01426); source: bought: Latoxan (lyophilized)
T12 sequence (P01426 whole entry, one chain of several): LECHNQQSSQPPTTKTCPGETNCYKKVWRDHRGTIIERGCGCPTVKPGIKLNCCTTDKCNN

[4] = molecular target: protein of Hemachatus haemachatus PRINTED:77012629983_21 (Hemachatus haemachatus, fraction Hh9 …); assay: BLI; […] (0.5 µg/ml) […], pH 7.2; 600 s association, 600 s dissociation; global 1:1 fit
[5] = molecular target: T13, Cardiotoxin (P01468) from N. pallida (Naja pallida, UniProt P01468); assay: crystal structure
T13 construct: also called cardiotoxin (UniProt: P01468); source: bought: Latoxan (lyophilized)
T13 sequence (P01468 whole entry, looked up, one chain of several): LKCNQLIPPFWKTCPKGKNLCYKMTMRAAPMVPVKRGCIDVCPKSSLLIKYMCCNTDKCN

CTx-10 = CTx-10 (Naja pallida (Kenya, L1321)); Latoxan …, UniProt P01468, biotin (EZ-Link NHS-PEG4-Biotin, amine coupling)); assay: BLI; […], pH 7.2; 600 s association, 600 s dissociation; global 1:1 fit
Chain of CTx-10 (Naja pallida (Kenya, L1321)); Latoxan …, UniProt P01468, biotin (EZ-Link NHS-PEG4-Biotin, amine coupling)) (P01468 whole entry, looked up): as the sequence (P01468 whole entry, looked up, one chain of several) above

B1: VHH17 a-KUN (VHH)
VHH: QVQLQESGGGLVQPGGSLRLSCITSGSNFDDLSVGWFRQAPGKEREGVSCFSSSDGSTYYVDSVKGRFTMSRDNAKNTVYLQMNNLKPEDTAVYYCTADGFPYPSETMCSIPGGPDSVAWGQGTQVTVSS
notes: source: E. coli BL21 (DE3), purified (Ni resin)
- Kd (KUN-1): 0.0405 nM
- koff (KUN-1): 8.43e-07 s⁻¹
- kon (KUN-1): 20800 M⁻¹ s⁻¹
- Kd (KUN-2 [1]): < 1 pM
- koff (KUN-2 [1]): < 1e-07 s⁻¹
- kon (KUN-2 [1]): 86900 M⁻¹ s⁻¹

B2: VHH17 a-KUN (VHH)
VHH: B1 VHH
notes: source: E. coli BL21 (DE3), purified (Ni-NTA)
- binding result (KUN-2 [2]): binds

B3: VHH9 a-lNTx (VHH)
VHH: QVQLQESGGGLVQPGGSLRLSCTASGSIFSTVNTMGWYRQAPGKQRELVAAITGGGSTNYADSVKGRFTISRDNVENTVHLRMNALKPEDTAVYYCNFQEYCSAYGCYELPHDYWGQGTQVTVSS
notes: as for B1
- Kd (lNTx-3): 1.18 nM
- koff (lNTx-3): 0.000203 s⁻¹
- kon (lNTx-3): 173000 M⁻¹ s⁻¹
- Kd (lNTx-7): 0.753 nM
- koff (lNTx-7): 2.71e-05 s⁻¹
- kon (lNTx-7): 36000 M⁻¹ s⁻¹

B4: VHH15 a-Og XI (VHH)
VHH: QVQLQESGGGAVPAGGSLTLSCAASGRTLSDYTMGWFRQAPGKEREIVGAISWNDGYTYYDDSVKGRFTISRDNAKNTMYLQMNSLKPEDTAVYYCAAQAPEMVRSGNFGSWGPGTQVTVSS
notes: as for B1
- Kd (Og XI-1): 2.19 nM
- koff (Og XI-1): 0.000161 s⁻¹
- kon (Og XI-1): 73400 M⁻¹ s⁻¹
- Kd (Og XI-2): 2.16 nM
- koff (Og XI-2): 0.000122 s⁻¹
- kon (Og XI-2): 56700 M⁻¹ s⁻¹

B5: VHH20 a-PLA2 (VHH)
VHH: QVQLQESGGGLAQAGGSLRLSCAASGLAFSNYSMGWARQAPGKEREFVAAISWSHQPTYYADSVKGRFTISRDNAKNTLYLQMNSLKPEDTAVYYCAADSRPNSYRLGGPGNYWGQGTQVTVSS
notes: also called anti-PLA2 VHH
- binding result (PLA2-3): binds

B6: VHH5 a-sNTx (VHH)
VHH: QVQLQESGGGLVRPGGSLRLSCAVSGVSESIFANYVVGWFRQQDSGTGRDLVAQSSSDDEYNHVSGSVKGRFTISRDNAKNTVSLQMDNLKPEDTAIYICAAAIGPGDNYIYWGQGTQVTVSS
notes: as for B1
- Kd (sNTx-1): 1.9 nM
- koff (sNTx-1): 4.72e-05 s⁻¹
- kon (sNTx-1): 24900 M⁻¹ s⁻¹
- Kd (sNTx-5): 16.9 nM
- koff (sNTx-5): 0.000631 s⁻¹
- kon (sNTx-5): 37400 M⁻¹ s⁻¹
- Kd (sNTx-6): 5.46 nM
- koff (sNTx-6): 0.000163 s⁻¹
- kon (sNTx-6): 29800 M⁻¹ s⁻¹
- Kd (sNTx-7): 0.388 nM
- koff (sNTx-7): 1.44e-05 s⁻¹
- kon (sNTx-7): 37100 M⁻¹ s⁻¹

B7: VHH5 a-sNTx (VHH)
VHH: B6 VHH
notes: also called anti-sNTx VHH; source: E. coli BL21 (DE3), purified (Ni-NTA)
- binding result [3]: binds

B8:  (VHH)
VHH: QVQLQESGGGLVQAGGSLRLSCAAPGFTFDNYAIGWFRQAPGKEREAVSMIDVNDGDTYYADSVKGRFATSIDNARITAYLQMNSLKPEDTAVYYCAAGEQGGIETEDDYGMDYYGKGTQVTVSS
notes: also called VHH4; source: E. coli BL21 (DE3), purified (Ni resin)
- binding result [4]: no binding (tested: 480 nM)

B9:  (VHH)
VHH: QVQLQESGGGLVQAGGSLRLSCAASGRTFSSYAMAWFRQAPGKEREFVASISWNGDSTYYADSVKGRFTISGDNAKNTWYLQMKSLKPEDTAVYYCNTEDEGSGTYYEWGQGTQVTVSS
notes: also called VHH1; source: E. coli BL21 (DE3), purified (Ni resin)
- binding result [4]: no binding (tested: 480 nM)

B10:  (VHH)
VHH: B9 VHH
notes: also called anti-CTx VHH; source: E. coli BL21 (DE3), purified (Ni-NTA)
- binding result [5]: binds
- binding result (CTx-10): binds
